# Laboratory results as given in paper PMC11181998.
# Legend:
# [1] = target: ACE2 receptor (UniProt Q9BYF1); assay: ELISA; competitive ELISA of ACE2 binding; AH-adsorbed DCFHP incubated overnight at 50 °C, against a reference freshly adsorbed to AH
# [2] = target: ACE2 receptor (UniProt Q9BYF1); assay: ELISA; competitive ELISA of ACE2 binding; AH-adsorbed DCFHP incubated overnight at 40 °C, against a reference freshly adsorbed to AH
# [3] = target: ACE2 receptor (UniProt Q9BYF1); assay: ELISA; competitive ELISA of ACE2 binding; DCFHP at 50 mcg/mL in 20 mM Tris, 150 mM NaCl, 5% Sucrose, pH 7.5, in solution or adsorbed to 1.5 mg/mL Alhydrogel (AH); time zero or freshly adsorbed; read against a DCFHP reference sample; who was immobilised is told only in the Supplemental methods
# [4] = target: ACE2 receptor (UniProt Q9BYF1); assay: ELISA; competitive ELISA of ACE2 binding; DCFHP samples (in solution, or with AH and 0, 20 or 200 mM sodium phosphate) stored at 4 °C (3-21 days, 1 month, or up to 4 weeks) before the assay
# Sequence of UniProt Q9BYF1 (Q9BYF1 18-740 limits assumed): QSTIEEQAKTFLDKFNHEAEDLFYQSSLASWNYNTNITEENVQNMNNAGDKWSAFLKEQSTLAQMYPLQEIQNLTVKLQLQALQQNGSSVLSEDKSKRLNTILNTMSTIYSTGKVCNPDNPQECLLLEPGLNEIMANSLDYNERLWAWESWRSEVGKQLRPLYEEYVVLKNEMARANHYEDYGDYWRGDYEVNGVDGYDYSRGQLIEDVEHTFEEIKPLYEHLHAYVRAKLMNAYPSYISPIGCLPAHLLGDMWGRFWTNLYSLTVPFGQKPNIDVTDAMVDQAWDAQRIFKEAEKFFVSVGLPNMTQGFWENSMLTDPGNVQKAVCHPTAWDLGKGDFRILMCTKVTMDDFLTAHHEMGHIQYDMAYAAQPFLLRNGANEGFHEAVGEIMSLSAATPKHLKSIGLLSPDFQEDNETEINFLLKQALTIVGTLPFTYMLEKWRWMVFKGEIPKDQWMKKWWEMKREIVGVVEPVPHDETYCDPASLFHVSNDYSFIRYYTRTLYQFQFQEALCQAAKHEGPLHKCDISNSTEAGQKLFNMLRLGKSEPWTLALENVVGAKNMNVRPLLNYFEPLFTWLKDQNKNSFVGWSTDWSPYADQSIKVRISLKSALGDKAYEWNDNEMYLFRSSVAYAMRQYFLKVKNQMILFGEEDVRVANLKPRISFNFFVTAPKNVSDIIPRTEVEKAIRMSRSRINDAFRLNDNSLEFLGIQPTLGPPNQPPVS
substance,measurement,setting,value
"Delta-C70-Ferritin-HexaPro (DCFHP), SARS-CoV-2 spike ferritin nanoparticle vaccine antigen, produced in Expi293 cells",loss of ACE2 binding after overnight at 50 °C,[1],80%
same,loss of ACE2 binding after overnight at 40 °C,[2],60%
same,"native antigen concentration by ACE2 competitive ELISA (target 50 mcg/mL), freshly adsorbed to AH, time zero",[3],48 µg/mL
same,"native antigen by ACE2 competitive ELISA after 1 month at 4 °C, AH with 0 mM phosphate",[4],80 µg
same,"native antigen by ACE2 competitive ELISA after 1 month at 4 °C, AH with 200 mM phosphate",[4],50 µg
same,"native antigen concentration by ACE2 competitive ELISA (target 50 mcg/mL), AH-adsorbed, stored at 4 °C for 3-21 days",[4],75 µg/mL
